Assay results: patent US20220025008A1 (FAPON BIOTECH, published 2022)
Where a chain is given by its changes, count along the chain named.

T1: Recombinant NT antigen (N-terminal pro-brain natriuretic peptide, NT-proBNP) (human, UniProt P16860 27-102)
T1 construct: domain: N-terminal pro-brain natriuretic peptide (NT-proBNP); also called recombinant NT protein; N-terminal pro-B-type natriuretic peptide
T1 sequence (looked up): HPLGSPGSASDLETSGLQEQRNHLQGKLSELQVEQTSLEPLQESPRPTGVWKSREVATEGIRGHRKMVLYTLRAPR

B1: Mutation 1-33 (antibody)
heavy: QVRLQESGPSQVKPAQTLSLTCAISGFSVTTYYIDWVRHTPGKPPEWLAQMTKDGNAVHQPTLRSRLSITRDTSKSQVFLKLTGVTTEDTAVYYCVRGLIDFGPGLLVTVSSASTTPPKVYPLTSCCGDTSSSIVTLGCLVSSYMPEPVTVTWNSGALTSGVHTFPAILQSSGLYSLSSVVTVPASTSGAQTFICNVAHPASSTKVDKRVEPGCPDPCKHCRCPPPELPGGPSVFIFPPKPKDTLTISGTPEVTCVVVDVGQDDPEVQFSWFVDNVEVRTARTKPREEQFNSTFRVVSALPIQHQDWTGGKEFKCKVHNEGLPAPIVRTISRTKGQAREPQVYVLAPPQEELSKSTLSVTCLVTGFYPDYIAVEWQKNGQPESEDKYGTTTSQLDADGSYFLYSRLRVDKNSWQEGDTYACVVMHEALHNHYTQKSISKPPGK
light: QAVLTQPSSVSRSLGQTVSITCSGSSDQVGFGDYINWFQLIPGSAPKTLIFGAYSRIRGVPDRFSGSRSGNTATLTINSLQAEDEADYYCGSANSRGGYVFGSGTRLTVLSQPKSAPSVTLFPPSKEELDTNKATVVCLISDFYPGSVNVVWKADGSTINQNVKTTQASKQSNSKYAASSYLTLTGSEWKSKSSYTCEVTHEGSTVTKTVKPSECS
B2: Mutation 1-5 (antibody)
heavy: B1 heavy with V29L, I34V, Q60N, L63V, L99V
light: QAVLTQPSSVSRSLGQTVSITCSGSSDNVGFGDYINWFQLIPGSAPKTLIFGAYSRVRGVPDRFSGSRSGNTATLTINSLQAEDEADYYCGSGNSRNYVFGSGTRLTVLSQPKSAPSVTLFPPSKEELDTNKATVVCLISDFYPGSVNVVWKADGSTINQNVKTTQASKQSNSKYAASSYLTLTGSEWKSKSSYTCEVTHEGSTVTKTVKPSECS
B3: Mutation 1-9 (antibody)
heavy: B1 heavy with V29I
light: B1 light with Y54S
B4: Mutation 1-29 (antibody)
heavy: B1 heavy with V29I, I34V, Q60N, L63V, L99V
light: B2 light with Y54S
B5: Mutation 1-23 (antibody)
heavy: B1 heavy with V29L, I34V, L63I, L99V
light: B1 light with I35V, I57V, A93P
B6: Mutation 1-17 (antibody)
heavy: B1 heavy with I34V, Q60N, L63V, L99V
light: B2 light with Y54T
B7: Mutation 1-19 (antibody)
heavy: B1 heavy with V29I, I34L, L63V, L99I
light: B2 light with I35L, Y54T, V57L
B8: Mutation 1-11 (antibody)
heavy: B1 heavy with V29I, I34V, L63I, L99V
light: B1 light with I35V, Y54S, I57V, A93P
B9: WT 1-7 (antibody, V domains shown)
VH: QVRLQESGPSQVKPAQTLSLTCAISGPSVTTYYLDWVRHTPGKPPEWLAQMTKDANAVHQPTVRSRLSITRDTSKSQVFLKLTGVTTEDTAVYYCVKGVIDWGPGLLVTVSS
V domain: QAVLTQPSSVSRSLGQTVSITCSGSSDNVGPGDYINWFQLIPGSAPKTLIFAAYSRLRGVPDRFSGSRSGNTATLTINSLQAEDEADYYCGSGNSRGGYVWGSGTRLTVLS
B10: WT 1-6 (antibody, V domains shown)
VH: B9 VH with V29I, L34V, V63I, V99L
V domain: B9 V domain with N28Q, I35L, Y54S, G93A
B11: Mutation 1-52 (antibody, V domains shown)
VH: B9 VH with P27F, A55G, K97R
VL: B9 V domain with P31F, I35L, A52G, W101F
B12: Mutation 1-38 (antibody, V domains shown)
VH: B9 VH with P27F, V29I, L34V, A55G, V63L, K97R, V99L
VL: B9 V domain with N28Q, P31F, A52G, Y54T, L57V, W101F
B13: Mutation 1-42 (antibody, V domains shown)
VH: B9 VH with P27F, L34I, A55G, Q60N, K97R, V99I
VL: B9 V domain with P31F, A52G, Y54S, L57I, W101F
B14: WT 1-4 (antibody)
heavy: B1 heavy with F27P, I34V, G55A, R97K, L99V
light: B1 light with F31P, I35V, G52A, Y54T, A93G, F101W
B15: Mutation 1-6 (antibody, V domains shown)
VH: B9 VH with P27F, L34I, A55G, Q60N, K97R, V99I
VL: QAVLTQPSSVSRSLGQTVSITCSGSSDNVGFGDYINWFQLIPGSAPKTLIFGASSRIRGVPDRFSGSRSGNTATLTINSLQAEDEADYYCGSPNSRNYVFGSGTRLTVLS
B16: Mutation 1-18 (antibody, V domains shown)
VH: B9 VH with P27F, V29I, L34I, A55G, Q60N, K97R, V99I
VL: B15 VL with S54T

Target: T1, Recombinant NT antigen (N-terminal …)
Test: indirect ELISA, KD calculated from half-max OD at 4 coating concentrations
Summary of the method: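 Plates coated overnight at 4 °C with recombinant NT antigen at 3, 1.5, 0.75 or 0.375 μg/ml, blocked with 20% BSA. Antibody, 2-fold dilutions from 1000 to 0.977 ng/ml, was incubated 30 min at 37 °C, then detected with HRP anti-IgG, OD450/630. KD was derived from half-max OD across coating levels.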

Binder | Kd
B1 | 2.6 nM
B2 | 6.1 nM
B3 | 1.56 nM
B4 | 1.49 nM
B5 | 0.81 nM
B6 | 3.39 nM
B7 | 1.51 nM
B8 | 1.52 nM
B9 | 5.05 nM
B10 | 6.14 nM
B11 | 2.71 nM
B12 | 1.82 nM
B13 | 2.22 nM
B14 | 3.02 nM
B15 | 1.17 nM
B16 | 1.73 nM
